Results: US20240043859A1, “HERBICIDE-RESISTANT PROTEIN, AND GENE AND USE THEREOF” (QINGDAO KINGAGROOT CHEMICAL COMPOUND CO., LTD., priority 2020, published 2024)
Entries after “also recorded” stand apart in the source; their conditions may differ.

Tests used:
[1] = test system: Arabidopsis thaliana; experiment: Herbicide resistance of transgenic Arabidopsis thaliana seedlings on plate medium (root growth); type: in vivo; conditions: Arabidopsis overexpressing the gene
How it was run: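 After 3 days of cold treatment at 4 °C, seeds were cultured at 22 °C under a 16 h/8 h light cycle on MS herbicide medium (0.3 μM 2,4-D in the screen). Root growth was scored against wild-type seedlings at one week. The material was T2 AAD-overexpressing lines (AtUbi10 promoter, MAS terminator, hygromycin marker), two events each, tested with 2,4-D, 2,4-DB sodium and MCPA.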

[2] = type: cell-based, Escherichia coli
[3] = Chromogenic reaction of degrading herbicides in bacteria: 2,4-D; type: cell-based, Escherichia coli; conditions: recombinant E. coli expressing the gene, 2,4-D added to the medium, red = phenols
How it was run: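 Colour from 2,4-D degradation was detected at A510 after 5 min at room temperature, with 4-aminoantipyrine and ferricyanide added to culture supernatant in pH 10 borate. Cultures were AAD12-expressing or empty-vector (pET15b) BL21(DE3), grown overnight at 28 °C with 0.5 mM 2,4-D, 0.1 mM IPTG and 2 mM α-ketoglutarate.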

[4] = test system: Arabidopsis thaliana; experiment: Herbicide resistance of transgenic Arabidopsis thaliana seedlings on plate medium (root growth); type: in vivo; conditions: plate medium with 2,4-D (0.3 μmol)
[5] = Chromogenic reaction of degrading herbicides in bacteria: triclopyr; type: cell-based, Escherichia coli; conditions: recombinant E. coli expressing the gene
Protocol: To transform the plasmids to be tested, an AAD12-expressing plasmid and a blank control plasmid pET15b were respectively transformed into the protein expression E. coli BL21(DE3) strains. A monoclone was selected and inoculated in a 10 ml centrifuge tube with 3 ml LB medium, and cultivated at 37° C., 200 rpm for 6-8 hours. […] The temperature was switched to 28° C. and the cultivation continued overnight. In the next morning, 200 μL of each bacteria solution was taken and centrifuged to precipitate thallus, 180 μL of the supernatant was taken and added in a 96-well plate, and 20 μL of borate buffer of pH 10 was added. Then the mixture was added with 2 μL of 8% potassium ferricyanide and mixed well, followed by adding 2 μL of 2% 4-aminoantipyrine, and placed at room temperature for 5 min to observe the color and detect the A510 value. […]

Row | Molecule | Resistance of transgenic Arabidopsis thaliana: 2,4-D [1] | Resistance of transgenic Arabidopsis thaliana: MCPA [1] | Chromogenic reaction of degrading herbicides in bacteria: MCPA [2] | Chromogenic reaction of degrading herbicides in bacteria: 2,4-D [3] | Chromogenic reaction of degrading herbicides in bacteria: 2,4-D ([3]; listed as D57) | 2,4-D resistance of T1 generation transgenic seedlings (seminal root growth) [4] | Chromogenic reaction of degrading herbicides in bacteria: 2,4-D ([3]; listed as D55) | Chromogenic reaction of degrading herbicides in bacteria: 2,4-D ([3]; listed as D56) | Chromogenic reaction of degrading herbicides in bacteria: 2,4-D ([3]; listed as D53) | Chromogenic reaction of degrading herbicides in bacteria: 2,4-D ([3]; listed as D52) | Chromogenic reaction of degrading herbicides in bacteria: 2,4-D ([3]; listed as D51) | Chromogenic reaction of degrading herbicides in bacteria: 2,4-D ([3]; listed as D44) | Chromogenic reaction of degrading herbicides in bacteria: 2,4-D ([3]; listed as D30) | Chromogenic reaction of degrading herbicides in bacteria: Triclopyr [5] | Chromogenic reaction of degrading herbicides in bacteria: Triclopyr ([5]; listed as D30)
1 | QYD57: AAD-like enzyme, SEQ ID NO. 113 (protein, Synthetic polypeptide, QYD57, D57) MPQHFDVAPVDATFGAVVTNLKLANLDEPAFRELYATWLEHALLIFPGQFLTREQQIAFARRFGALEFEMAAISNVKSDGTLRREADNDDVVKILKGNMGWHADSTYMPLQAKGAVFSAKVVPSARGETGWADMRAAYDALDAAVRDRVERLSAYHSLHYSQAKAGFQHKDKKSEYSGYGLHDGPVPLRPLVKTHPETGRKSLLIGRHAHNIPGMEPEESERLLDGLVEFACQAPRTYHHSWKPGEAVIWDNRCLLHRAMPWDMTEPRIMWHSRIAGDPASEAAIN | Yes | Yes | Yes | Yes | could degrade 2,4-D; also recorded: capable of degrading 2,4-D | showing tolerance to 2,4-D |  |  |  |  |  |  |  |  | 
2 | QYD55: AAD-like enzyme, SEQ ID NO. 109 (protein, Synthetic polypeptide, QYD55, D55) MARPFDIEPLDATFGAVVRGVKVAALDDVTWRALHDAWLQYALLIFPGQHLSREAQIAFAKRFGPLEFEMAPISNVRADGSVRAEAENDDVIKVLKGNMGWHCDSTYMPVQAKGAVFSAEVVPGAGGQTGWADMRAAYDALDGDLRARIENLSAYHSLYYSQAKLDHRPSKSSAYSGYGFHDGPVPLRPLVKVHPETGRKSLLIGRHAHNIPGMDADESTRLLQSLVDFACRPPRIYHHHWTAGDTVVWDNRCLLHQATPWDMTQPRVMWHSRIAGDPASEAALA | Yes |  | Yes | Yes |  | showing tolerance to 2,4-D | could degrade 2,4-D; also recorded: capable of degrading 2,4-D |  |  |  |  |  |  |  | 
3 | QYD56: AAD-like enzyme, SEQ ID NO. 111 (protein, Synthetic polypeptide, QYD56, D56) MARTFDVQPLDATFGAVISGVKLAALDDETWRELYATWLQYALLVFPGQHLSRDQQIAFARRFGPLEFEIIALSNVKSDGTIRSEVENDDVIKVLKGNMGWHADSTYMPVQAKGAVFTAEVVPSVGGQTGWADMRAAYDALDGATRQKVEQLSAYHSLHYSQSKLGHQHKPGSAYSGYGFHDGPVPLRPLVKTHPETGRKSLLIGRHAHNIPGMDKDESARFLEDLVASACQPPRIYHHTWAAGDAVVWDNRCLLHQATPWDMTQPRVMWHSRIAGDPLSEAALG | Yes |  | Yes |  |  | showing tolerance to 2,4-D |  | could degrade 2,4-D; also recorded: capable of degrading 2,4-D |  |  |  |  |  |  | 
4 | QYD53: AAD-like enzyme, SEQ ID NO. 105 (protein, Synthetic polypeptide, QYD53, D53) MASTLSLQPLEGITFGAVATGFRIAELDEPTWQALHDAWLDHALLIFPGQFLTRDEQIAFARRFGPLEFEMAAISNVKPDGTLRLEKDNDDMMKVLKGNMGWHADSTYMPVQAKGAVFSAEVVPTIGGETGWADMRAAYEALDAATREKIDGLSAFHSLHYSQSKLGHQTQKSDGQYNGYGLHDGPVPLRPLVKTHPETGRKSLLIGRHAHNIPGMDKAESERFLDGLIAFACQPPRVYHHHWAPGDVVVWDNRCLLHQATPWDMTQPRVMWHSRIAGDPASEAGLAA | Yes | Yes | Yes | Yes |  | showing tolerance to 2,4-D |  |  | could degrade 2,4-D; also recorded: capable of degrading 2,4-D |  |  |  |  |  | 
5 | QYD52: AAD-like enzyme, SEQ ID NO. 103 (protein, Synthetic polypeptide, QYD52, D52) MTRTLDIEPIDATFGAVVRGIKVAEVDDETFRALYDAWLQYALLIFPDQHLQRDQQIAFAKRFGPLEFEMTAISNVRSDGTLRLEKDNDDVMKILKGNMGWHHDSTYMPVQAKGAVFSAEEVPTIGGRTGFADMRAAYDALDPAMKARIEGLNAYHSLHYSQGKVGHQTRKADGEYSGYGLHDGPVPLRPLVKTHPETGRKSLLAGRHAHNIPGLSQEASDSLLRELIDFACQPPRIYHHDWTPGDAVVWDNRCLMHQATPWDMTQRRIMWHSRIAGDPASESSLAA | Yes |  | Yes | Yes |  | showing tolerance to 2,4-D |  |  |  | could degrade 2,4-D; also recorded: capable of degrading 2,4-D |  |  |  |  | 
6 | QYD51: AAD-like enzyme, SEQ ID NO. 101 (protein, Synthetic polypeptide, QYD51, D51) MARTLDIEPIDATFGAVVRGIKVAEVDDETFRALYDAWLEYALLIFPDQHLKRDQQIAFAKRFGPLEFEMTAISNVRSDGTLRLEKDNDDVMKVLKGNMGWHHDSTYMPVQAKGAVFSAEEVPTIGGRTGFADMRAAYDALDPAMKARIEGLNAYHSLHYSQGRVGHQTKKSDGEYSGYGLHDGPVPLRPLVKTHPETGRKSLLAGRHAHNIPGLAQEESDRLLRELIDFACQPPRIYHHDWTPGEAVVWDNRCLMHQATPWDMTQRRIMWHSRIAGDPASESARPQP | Yes | Yes | Yes | Yes |  | showing tolerance to 2,4-D |  |  |  |  | could degrade 2,4-D; also recorded: capable of degrading 2,4-D |  |  |  | 
7 | QYD44: AAD-like enzyme, SEQ ID NO. 87 (protein, Synthetic polypeptide, QYD44, D44) MARAFDIAPLDATFGAVVTGVKLAEVDDAGWCDLHAAWLEHALLVFPDQHLTRAQQIAFARRFGPLEFEMAAISNVRPDGSLRVESDNDDMMKILKGNMGWHADSTYMPVQAKGAVFSAEVVPGSGGQTGFADMRAAYDALDENLKARVETLQARHSLHYSQSKLGHETKTADGEYSGYGLHDGPVPLRPLVKVHPETGRKSLLIGRHAHAIPGMERAESERLLQQLIDFACQPPRVYHHDWAPGDAVLWDNRCLLHQATPWDMTQKRIMWHSRIAGDPASETALAGAGP | Yes | Yes | Yes | Yes |  | showing tolerance to 2,4-D |  |  |  |  |  | could degrade 2,4-D; also recorded: capable of degrading 2,4-D |  |  | 
8 | QYD30: AAD-like enzyme, SEQ ID NO. 59 (protein, Synthetic polypeptide, QYD30, D30) MALSLTPLTPGFVAEASGLDLTRPLDAAAVRTIEQAMDDYAVLVFRNQPLDQDQQIRFAQGFGPLDLGLRKVKGGAHRFDHAELADISNVTVDGSVAGRDHAKIVGNIANQLWHSDSSFQRPRAKYSMLSAVVVPQDGGQTEFADLRAAYDHLPDGMKAAIGDLQAVHYALHSRFLLGDTEYTQAQRDALPAVRWPLVQTDPRSGRKILFVGIHACEVVGMTVAEGRMLLLDLLEHATQREFVYRHHWRVGDLVMWDNTATLHRGRRFDLAQRRELRRATTEEVRLSAEARAAA | Yes |  | Yes | Yes |  |  |  |  |  |  |  |  | could degrade 2,4-D; also recorded: capable of degrading 2,4-D | Yes | slight degradation
